What all share (test): HPLC product assay, Michaelis-Menten fit
Type in all cases: biochemical, Citrus maxima

Substrate in data set [1]: COc1ccc(-c2cc(=O)c3c(O)cc(O)cc3o2)cc1O
The note with it: 1 mM UDP-glucose, 50 mM PBS pH 7.0, 35 °C.

Substrate in data set [2]: COc1ccc([C@@H]2CC(=O)c3c(O)cc(O)cc3O2)cc1O
The note with it: 1 mM UDP-glucose.

Substrate in data set [3]: O=C1C[C@@H](c2ccc(O)cc2)Oc2cc(O)cc(O)c21
The following applies: 1 mM UDP-glucose.

Substrate in data set [4]: O=c1c(O)c(-c2ccc(O)cc2)oc2cc(O)cc(O)c12
The note with it: 1 mM UDP-glucose.

Substrate in data set [5]: COc1ccc(-c2cc(=O)c3c(O)cc(O)cc3o2)cc1O
The note with it: 1 mM UDP-glucose, 50 mM PBS pH 7.0, 35 °C. The source says: (§1) HPLC product assay, Michaelis-Menten fit on CgUGT89AK1
The source holds these as a separate data set.

Substrate in data set [6]: O=C1C[C@@H](c2ccc(O)c(O)c2)Oc2cc(O)cc(O)c21
The following applies: 1 mM UDP-glucose, 50 mM PBS pH 7.0, 35 °C.
From the text: as §1

Substrate in data set [7]: O=C1C[C@@H](c2ccc(O)cc2)Oc2cc(O)cc(O)c21
The note with it: 1 mM UDP-glucose, 50 mM PBS pH 7.0, 35 °C.
From the text: as §1

Substrate in data set [8]: O=c1c(O)c(-c2ccc(O)c(O)c2)oc2cc(O)cc(O)c12
The note with it: 1 mM UDP-glucose, 50 mM PBS pH 7.0, 35 °C.
From the text: as §1

Substrate in data set [9]: O=c1cc(-c2ccc(O)cc2)oc2cc(O)cc(O)c12
The note with it: 1 mM UDP-glucose, 50 mM PBS pH 7.0, 35 °C.
From the text: as §1

Substrate in data set [10]: O=c1cc(-c2ccc(O)cc2)oc2cc(O)cc(O)c12
The note with it: 1 mM UDP-glucose.

B1: CgUGT90A31 (Citrus maxima) (protein)
chain: MGSISSDHHVVLFPFMSKGHIIPILNLVQLLLRRPRVTVTVFTTPANRPFTSKFLSNSSTAACSIIDIPYPENVPEIPAGVESTDKLPSMSLYVPFTRATKLMQPHFERALESLPRVSFMVSDGFLWWTLDSANKFGFPRLVFYGMNNYAMSVSRSVGQNRLLSGVQSDDELLTLPEFPWIKITKKDFDSPITDPEPKGPHFELFIDQIVSTSNSHGMIVNSFYELEPLFADHCNRVGKPKSWCVGPLCLAELPPKNEEPKNELSKPAWIKWLDRKLDEGSSVMYVAFGSQAEISAQQLKEIAIGLEQSKVNFLWVIRTAQSELGDGFEERVKGRGLVVRDWVDQNEILWHGSVQGFLSHCGWNSTLESICAGVPILAWPMMAEQPLNARMVTEEIKVGLRVETCDGSVRGFVKWRGLEKTMRELMGGEKGEKARTKVKELSEIARKAMEEGKGSSWRCLDMLLDETCKLEQHD
As for B1, the Michaelis constant (Km) (as a rule, the concentration of substrate that gives half-maximal velocity) in data set [1] was found to be 34.93 ± 10.80 µM; in data set [2] (50 mM PBS pH 7.0, 35 °C), 179.10 ± 48.24 µM; in [3] (50 mM PBS pH 7.0, 35 °C), 139.04 ± 40.50 µM; in [4] (50 mM PBS pH 7.0, 35 °C) it was 56.20 ± 19.14 µM. Moreover, the catalytic efficiency (kcat/Km) (as a rule, the second-order rate constant that governs catalysis at low substrate concentration) was 15.8 M⁻¹ s⁻¹ in data set [1]; 51.4 M⁻¹ s⁻¹ in [2] (50 mM PBS pH 7.0, 35 °C); 52 M⁻¹ s⁻¹ in data set [3] (50 mM PBS pH 7.0, 35 °C); 6.48 M⁻¹ s⁻¹ in data set [4] (50 mM PBS pH 7.0, 35 °C).

B2: CgUGT89AK1 (Citrus maxima) (protein)
chain: MLPAGAHILVYPFPTSGHIIPLLDLTNRLLTLGLNVTVLITQNNLPLLDSLNANHPSTSLQSLVLPQPKWPAGSPATRLLKFMRVLRELHYPALLDWFKSHPSPPVAILSDFFLGWTQGLAAELGLPRVVFSPSGAFALSVSFAMWTDLPTNDDPDNVDALVSFPRVPNCPVYHWYQISHLYRTLKEGDPDWDLHRSNMMANKTSWGIVFNSFAELERVYIDHMKKEMGHDRVWAVGPVLPPDDDLVESMCRGGSSSVPAHDVLTWLDSRRDESVVYVCFGSRYVLTAKQIHELAAALEKTDVDFVYCVREPDERHASQDCGVLPDGFEDRVAGRGYVIRGWSQQVAILRHKAVGAFLTHCGWNSVLEGVSAGVVMLTWPMDADQYTNAQLLVDQLGVGIRVGEGTRNIPESGELARLLAQSVDGPRRERLKARELSGAALSAVVKGGSSDRDLNDFIKRINELKSGKNLTAV
For B2, the Michaelis-Menten constant (Km) in [5] was 6.16 ± 2.64 µM; in data set [6], 26.25 ± 5.65 µM; in [7] it was 52.88 ± 17.30 µM; in data set [8] it was 19.44 ± 11.00 µM; in [9] it was 24.37 ± 5.03 µM. In addition, the kcat/Km worked out at 284 M⁻¹ s⁻¹ in [5]; 154 M⁻¹ s⁻¹ in [6]; 48.3 M⁻¹ s⁻¹ in [7]; 1350 M⁻¹ s⁻¹ in [8]; 107 M⁻¹ s⁻¹ in data set [9].

B3: CgUGT89D30 (Citrus maxima) (protein)
chain: MSSSNTRTTHILIFPYPAQGHMLPLLDLTHQLSLKDLDITILVTPKNLPILSPLLDAHPAIKTLVLPFPSHPSIPPGIENVRELGNRGNYPIMTALGKLYGPIIDWFRSQANPPVAILSDFFLGWTLKLAHQLNIVRIAFFSSGWLLASVVDYCWHHIGDVKSLDVVEFPDLPRYPVFKRRHLPSMVRSYKESDPESQFVKDGNLANTSSWGCVFNSFDALEGEYSDYLKRKMGHDRVFGVGPLSLVGLESTGGGDPGLGPNDHVTKWLDGCPDGSVVYVCFGSQKALKRDQMEALASGLEKSGIRFLWVVKTGMIGKGDDGYGSMPDGFEEQVAGRGLVLKGWAPQVSILSHKAVGGFLSHCGWNSLLEGIVGGAMILAWPMEADQFVNAKLLVEDLGVAVQVCEGADSVPDSDELGNIIAESLSQRDEVKIKAKELRDDALAAVKSDGSSARDLDRLVEELRNLHAK
As to B3, the Km was determined as 207.41 ± 77.33 µM in [2] (50 mM PBS pH 7.0, 30 °C); 79.57 ± 5.51 µM in data set [3] (50 mM PBS pH 7.0, 30 °C); 35.76 ± 18.07 µM in data set [4] (50 mM PBS pH 7.0, 30 °C); 17.34 ± 10.85 µM in data set [10] (50 mM PBS pH 7.0, 30 °C). The catalytic efficiency (kcat/Km) in [2] (50 mM PBS pH 7.0, 30 °C) worked out at 11 M⁻¹ s⁻¹; in data set [3] (50 mM PBS pH 7.0, 30 °C) it was 18.1 M⁻¹ s⁻¹; in data set [4] (50 mM PBS pH 7.0, 30 °C), 21.9 M⁻¹ s⁻¹; in [10] (50 mM PBS pH 7.0, 30 °C) it was 88.2 M⁻¹ s⁻¹.

B4: CgUGT73AC12 (Citrus maxima) (protein)
chain: MDSKSSPVEMFFFPYVGGGHQIPMVDIARIFAAHGAKSTIITSPKHALSFQKSINRNQQSGLPITIKTLHLPDDIEIPDTDMSATPRTDTSMLQKPLKSLLLDSRPDCIVHDMFHHWSADVINSMNIPRIVFNGNCCFSRCVLENVRKYKPHEKVSSDYEPFVVPGLPDKIELTSSQLPVGARQQEAGSVHKMFAKPEEKSFGIVVNSFYDLEPAYVEYFKQDLGNDKAWFVGPVSLCNRNIEDKAERGQKTSIDEGKILSFLDSKETNSVLYISFGSLARLAPEQLLEIAYGLEASNHSFIWVVGKIFQSPGTRKENGIEENWLPSGFEERMRESKRGLIIRGWAPQLLILEHAAVGGFMTHCGWNSTLESVSAGVPMVTWPITAEQFSNEKLISDVLKIGVKVGSVNWVSWSTEPSAAVGRDKVEVAVKRLMGTGEEAAEMRRRAGELGEKAKNAVEEGGSSFIDAEALLQELKSLSRI
For B4, the Michaelis constant (Km) is 169.68 ± 54.77 µM in data set [2] (50 mM PBS pH 7.0, 35 °C); 105.34 ± 35.62 µM in data set [3] (50 mM PBS pH 7.0, 35 °C); 92.58 ± 55.02 µM in data set [4] (50 mM PBS pH 7.0, 35 °C); 153.66 ± 62.17 µM in [10] (50 mM PBS pH 7.0, 35 °C). Also, the specificity constant (kcat/Km) in [2] (50 mM PBS pH 7.0, 35 °C) amounted to 5.62 M⁻¹ s⁻¹; in data set [3] (50 mM PBS pH 7.0, 35 °C) it was 6.36 M⁻¹ s⁻¹; in [4] (50 mM PBS pH 7.0, 35 °C) it was 11 M⁻¹ s⁻¹; in [10] (50 mM PBS pH 7.0, 35 °C), 5.93 M⁻¹ s⁻¹.

For the origin of these results see paper PMC11165160, “Four novel Cit7GlcTs functional in flavonoid 7-O-glucoside biosynthesis are vital to flavonoid biosynthesis shunting in citrus” (Horticulture Research, 2024).
